# The supplement of paper PMC10126150
# ± gives the standard deviation of the averaged measurements.
# Tested on: ATP
# Assay: switch fluorescence ratio, 500 uM ATP over buffer (Cy3 cluster intensity, sum of 5 cycles each) (fold (ratio)); higher = stronger signal-on switching upon ATP binding; sequences stand for … in TCGTCGGCAGCGTCAGATGTGTATAAGAGACAGTTTTTTTTTTTTTTTTTTTTTTTTT…TC
# Conditions: aptamer strand: ATP DNA aptamer (quencher-CACCTGGGGGAGTATTGCGGAGGAAGG + anchor), 100 nM annealed; ATP concentration: 500 uM
# How it was run: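 The fluorescence ratio divides summed target-cycle Cy3 intensity by summed buffer-cycle Cy3 intensity for each cluster and is averaged per switch-domain sequence. Cy3-labelled switching-strand clusters on a modified Illumina MiSeq flow-cell were annealed to 100 nM quencher-labelled ATP aptamer, then imaged in selection buffer and again after 15 min with 500 uM ATP at 22 °C. Five such cycles were run, with NaOH stripping and re-annealing between them, and clusters outside 100-1000 RFU were excluded.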
# 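Note: ATP exposure 15 min at 22 °C before imaging.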
row,Sequence,switch fluorescence ratio
1,GTTGTTTACC,1.02 ± 0.021
2,GCAGGAGTGG,0.9929 ± 0.0088
3,AAATCGAGGA,1.018 ± 0.0096
4,CAGTGTCTGC,0.9726 ± 0.0016
5,TCTTGATGGG,0.9811 ± 0.008
6,TCCGGCACGT,1.01 ± 0.019
7,AACATGGGGG,1.01 ± 0.023
8,AAGGGACAGC,1.03 ± 0.021
9,CGATGTCGCG,0.989 ± 0.028
10,TCGTGGACGC,0.995 ± 0.031
11,GCGGACGGAC,1.08 ± 0.061
12,CATGTTATCC,1.01 ± 0.034
13,ATGTTGCCGT,1.01 ± 0.13
14,TCGGGTGTTG,1.03 ± 0.048
15,TTTATGAAGA,0.985 ± 0.027
16,TTTACTTTCC,1.56 ± 0.16
17,AGCGTTAGAG,1.09 ± 0.017
18,GGGTGTACAA,0.98 ± 0.019
19,TACTGGACTT,1.14 ± 0.033
20,CGGGATAATG,0.994 ± 0.021
21,TGCTTAAGCA,0.982 ± 0.058
22,TCAAGGGCGG,0.988 ± 0.044
23,TCCAGTTGCT,1.02 ± 0.033

row,Sequence,switch fluorescence ratio
1,ATGAATGGAG,1.01 ± 0.026
2,TAGGACCAGC,0.98 ± 0.012
3,GCGAATTAGA,1 ± 0.034
4,AAGGGATTTA,1.04 ± 0.034
5,TGATAGGGGA,1.01 ± 0.047
6,CCAGTAGACT,1.06 ± 0.035
7,GCTAGGGTTT,0.965 ± 0.015
8,GAGATTTCAT,0.982 ± 0.036
9,AGACGTGCGT,1.01 ± 0.048
10,GCGGGAGGGA,1.03 ± 0.015
11,GATAAATGTA,0.9808 ± 0.0084
12,ATGGGCAGTG,1.02 ± 0.015
13,ATTAAAGGAG,1.01 ± 0.017
14,TTCAGTTAAT,1 ± 0.0032
15,TATATCTTCA,1.017 ± 0.0055
16,AATGAATGCA,1.004 ± 0.0014
17,ACGGGCAATG,1.32 ± 0.16
18,CACGGCTCGC,1.04 ± 0.015
19,GTGGTTTGTT,1.01 ± 0.046
20,GGGGAATAGT,1.26 ± 0.32
21,AGGGTGGGG,0.928 ± 0.076
22,TATTCTAGTA,1.01 ± 0.022
23,TTATGGTTTT,1 ± 0.024

row,Sequence,switch fluorescence ratio
1,ATGGCAGACA,0.9836 ± 0.0036
2,TCAACGGTAT,1.06 ± 0.029
3,ACATTTATCT,1.02 ± 0.02
4,AGCATGTCGT,1.01 ± 0.015
5,AAGGCTGGCT,0.99 ± 0.027
6,GGGTGTAATT,1 ± 0.016
7,GTGGGGGGCC,0.966 ± 0.028
8,CCAAGAGTCG,1.08 ± 0.046
9,GGGGCGGGA,1.08 ± 0.016
10,AATTATTGTA,0.979 ± 0.049
11,GGGGGGATGG,1.07 ± 0.23
12,GAGGCAGAAA,1.09 ± 0.044
13,CATTGTCTTC,1.05 ± 0.055
14,ATTGTTTGAG,0.982 ± 0.0032
15,TCTAATGAGG,1.006 ± 0.0063
16,ACCTGATCGT,1.087 ± 0.0051
17,AAAACAGTAA,1.02 ± 0.032
18,GATTTGCCTG,0.968 ± 0.036
19,CATGGGAAGA,0.9755 ± 0.004
20,AAGGGTTGTC,0.999 ± 0.088
21,AGGCCTCGGG,1.022 ± 0.0054
22,GGTGTTGGGG,1.0211 ± 3.7e-05
23,TTATGATGGA,0.991 ± 0.013

row,Sequence,switch fluorescence ratio
1,AGATTTATTT,1.004 ± 0.0097
2,AAAAGATGGG,1.02 ± 0.0016
3,CTGCAAGACA,2.64 ± 0.72
4,CGGGGAGGAA,1.01 ± 0.072
5,TGATGGGGGA,1.01 ± 0.03
6,AGGGTTACGC,1.04 ± 0.11
7,GCGCATGAAG,0.983 ± 0.013
8,GAATAATGGG,1.01 ± 0.033
9,GGGCAGGGGA,1.17 ± 0.35
10,ATTGGCGCGG,0.969 ± 0.012
11,TTTTGTTAGT,0.997 ± 0.022
12,TTAAAAATAC,1.06 ± 0.025
13,CCATACGTCA,1.25 ± 0.054
14,AATTGACGTA,1.021 ± 0.0069
15,CAATGTGACG,1.03 ± 0.052
16,AGTGTTAGTT,1 ± 0.024
17,CTCAACACCT,1.35 ± 0.048
18,CTTGCTGCTG,0.972 ± 0.044
19,TGCCATGACG,0.936 ± 0.046
20,ATGTGCTTC,1.005 ± 0.0078
21,AAAGGTAGTA,0.9934 ± 0.0097
22,GGCTTTACTA,1 ± 0.012
23,GTGGGGTGAA,1.03 ± 0.055

row,Sequence,switch fluorescence ratio
1,GGCTTGGAGC,0.996 ± 0.025
2,CTTTGTCGGT,1.03 ± 0.054
3,GCTAGTTGGG,0.9998 ± 0.0015
4,GCGCCCAGTT,1.003 ± 0.0029
5,GTTGTTGTGG,1.02 ± 0.034
6,TGGCTTGTTT,0.99 ± 0.058
7,ATGGGTTGTT,1.01 ± 0.034
8,GAGTTTGTTA,1.01 ± 0.07
9,AAAGGCCTG,1.01 ± 0.017
10,AAGATTGGGT,1 ± 0.049
11,TGGTATGCCC,1.04 ± 0.088
12,TGCGTATTTT,1.025 ± 0.0031
13,CTGGTAAGGT,0.9947 ± 0.0074
14,TCTTTTGGGT,0.9777 ± 0.0063
15,GTACCATTTT,0.9968 ± 0.0067
16,TAGGTTGGGG,1.005 ± 0.0065
17,AGTCCGTGCT,1.05 ± 0.044
18,TGAATTTAGC,1 ± 0.035
19,CGGCTTTTTT,0.959 ± 0.012
20,GAAAGCGGGG,0.968 ± 0.024
21,AACAAGCCCA,1.008 ± 0.0066
22,TATCGTACAG,1.06 ± 0.011
23,TCGGGGGTAA,1.01 ± 0.033

row,Sequence,switch fluorescence ratio
1,GATTTTTTTC,0.98 ± 0.05
2,AGGGATAAAG,1.01 ± 0.023
3,TAATTTTGGC,0.99 ± 0.018
4,AGTATATCTG,0.974 ± 0.02
5,GAGTGCAGGT,1.01 ± 0.015
6,AATTGTTCGT,0.98 ± 0.036
7,CGATTATTTG,0.9786 ± 0.0053
8,GTGTGCGCTG,1.008 ± 0.0073
9,GGACGGTCTT,1.01 ± 0.043
10,AACCGTCACA,1.202 ± 0.0059
11,TCAGCGTTTC,1.05 ± 0.027
12,TTTCGATTAC,1.07 ± 0.018
13,ATGAGGAGGA,1.04 ± 0.013
14,TGTATAAATT,0.9679 ± 0.0048
15,TTTCAGAAGG,1.01 ± 0.023
16,TAGAGTGATG,0.943 ± 0.013
17,TTGCCGGGCA,0.987 ± 0.032
18,GGGCCTCGGA,0.988 ± 0.042
19,GTGTATCGAT,1.003 ± 0.0081
20,AGAAGGCTGC,0.978 ± 0.0071
21,GGTTATTGGA,0.995 ± 0.058
22,GGGTCCTACG,1.12 ± 0.037
23,TCGGGGTGTG,0.988 ± 0.031

row,Sequence,switch fluorescence ratio
1,AGCGAGCGAA,1.01 ± 0.014
2,GTGGGTATTT,0.977 ± 0.023
3,AGTCGACTTT,0.997 ± 0.011
4,TTTTTGAAGT,1.01 ± 0.027
5,TTTCTGTGAT,1.004 ± 0.003
6,AAGTCAGGGG,1.05 ± 0.13
7,CATCAAGGGA,1.02 ± 0.045
8,CAAAGGTTGG,1 ± 0.038
9,TTTTTTGAGC,0.996 ± 0.031
10,AGGCGTTGAG,0.976 ± 0.018
11,TAGTGAACTT,1.01 ± 0.0054
12,CGAAAATATC,0.989 ± 0.023
13,AAGATCAATA,0.9967 ± 0.0044
14,TTTTATAAAG,1 ± 0.022
15,GCGAGCGATG,0.9988 ± 0.0062
16,TTGCTAGTAT,1.0001 ± 0.00075
17,GGCAAAACAG,0.996 ± 0.032
18,GATTATGGCG,1.047 ± 0.0054
19,GATGTTGTTA,0.9647 ± 0.0086
